Assay results as given in the supplement of paper PMC10567573.

B1: ISL2 (parent)
chain: HYPFLGAMGDHSKKKPGTAMCVGC

Variants of: B1
Experiment: protein stability index of a GFP-peptide fusion (GPS, HEK-293T) (PSI 1-6); higher = more stable
Conditions: c terminus: a fixed tail appended
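Also: lentivirally expressed fusions sorted by FACS into six bins by GFP to DsRed ratio, PSI derived from sequencing read proportions per bin multiplied by bin number.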

First: HYPFLGAMGDHSKKKPGTAHCVGC [M20H]
Second: HYPFLGAMGDHSKKKPGTAYCVGC [M20Y]
The protein stability index of the first is higher: 2.85 for the first, 1.99 for the second.

First: HYPFLGAMGDHSKKKPGTACCVGC [M20C]
Second: HYPFLGAMGDHSKKKPGTAACVGC [M20A]
The protein stability index of the first is lower: 3.18 for the first, 3.27 for the second.

Compared with HYPFLGAMGDHSKKKPGTASCVGC [M20S], HYPFLGAMGDHSKKKPGTAWCVGC [M20W] is lower in protein stability index: 3.55 for the first, 2.04 for the second.

First: HYPFLGAMGDHSKKKPGTALCVGC [M20L]
Second: HYPFLGAMGDHSKKKPGTATCVGC [M20T]
The protein stability index of the first is lower: 2.44 for the first, 3.16 for the second.

Going from HYPFLGAMGDHSKKKPGTAECVGC [M20E] to HYPFLGAMGDHSKKKPGTAKCVGC [M20K], the protein stability index rises from 3.62 to 3.7.

First: HYPFLGAMGDHSKKKPGTAGCVGC [M20G]
Second: HYPFLGAMGDHSKKKPGTAICVGC [M20I]
The protein stability index of the first is higher: 3.03 for the first, 2.29 for the second.

First: HYPFLGAMGDHSKKKPGTAFCVGC [M20F]
Second: HYPFLGAMGDHSKKKPGTARCVGC [M20R]
The protein stability index of the first is lower: 1.87 for the first, 3.25 for the second.

Going from HYPFLGAMGDHSKKKPGTANCVGC [M20N] to HYPFLGAMGDHSKKKPGTAPCVGC [M20P], the protein stability index falls from 3.16 to 3.03.

Going from HYPFLGAMGDHSKKKPGTAVCVGC [M20V] to HYPFLGAMGDHSKKKPGTAQCVGC [M20Q], the protein stability index rises from 2.62 to 3.09.

Going from HYPFLGAMGDHSKKKPGTADCVGC [M20D] to HYPFLGAMGDHSKKKPGTAMCPGC [V22P], the protein stability index falls from 3.61 to 3.05.

First: HYPFLGAMGDHSKKKPGTAMCLGC [V22L]
Second: HYPFLGAMGDHSKKKPGTAMCWGC [V22W]
The protein stability index of the first is higher: 2.42 for the first, 1.35 for the second.

First: HYPFLGAMGDHSKKKPGTAMCKGC [V22K]
Second: HYPFLGAMGDHSKKKPGTAMCQGC [V22Q]
The protein stability index of the first is lower: 3.18 for the first, 3.44 for the second.

First: HYPFLGAMGDHSKKKPGTAMCCGC [V22C]
Second: HYPFLGAMGDHSKKKPGTAMCSGC [V22S]
The protein stability index of the first is lower: 3.39 for the first, 3.6 for the second.

Going from HYPFLGAMGDHSKKKPGTAMCFGC [V22F] to HYPFLGAMGDHSKKKPGTAMCRGC [V22R], the protein stability index rises from 2.16 to 3.57.

First: HYPFLGAMGDHSKKKPGTAMCHGC [V22H]
Second: HYPFLGAMGDHSKKKPGTAMCEGC [V22E]
The protein stability index of the first is lower: 3.01 for the first, 3.46 for the second.

Compared with HYPFLGAMGDHSKKKPGTAMCIGC [V22I], HYPFLGAMGDHSKKKPGTAMCDGC [V22D] is higher in protein stability index: 2.08 for the first, 3.43 for the second.

Going from HYPFLGAMGDHSKKKPGTAMCGGC [V22G] to HYPFLGAMGDHSKKKPGTAMCYGC [V22Y], the protein stability index falls from 3.59 to 2.34.

First: HYPFLGAMGDHSKKKPGTAMCNGC [V22N]
Second: HYPFLGAMGDHSKKKPGTAMCTGC [V22T]
The protein stability index of the first is higher: 3.61 for the first, 3.42 for the second.

Compared with HYPFLGAMGDHSKKKPGTAMCAGC [V22A], HYPFLGAMGDHSKKKPGTAMCMGC [V22M] is lower in protein stability index: 3.04 for the first, 2.52 for the second.

First: HYPFLGAMGDHSKKKPETAMCVGC [G17E]
Second: HYPFLGAMGDHSKKKPKTAMCVGC [G17K]
The protein stability index of the first is higher: 3.44 for the first, 3.11 for the second.

Compared with HYPFLGAMGDHSKKKPPTAMCVGC [G17P], HYPFLGAMGDHSKKKPRTAMCVGC [G17R] is lower in protein stability index: 2.75 for the first, 2.23 for the second.

First: HYPFLGAMGDHSKKKPCTAMCVGC [G17C]
Second: HYPFLGAMGDHSKKKPMTAMCVGC [G17M]
The protein stability index of the first is higher: 3.97 for the first, 2.43 for the second.

Going from HYPFLGAMGDHSKKKPWTAMCVGC [G17W] to HYPFLGAMGDHSKKKPDTAMCVGC [G17D], the protein stability index rises from 1.63 to 3.35.

Going from HYPFLGAMGDHSKKKPSTAMCVGC [G17S] to HYPFLGAMGDHSKKKPYTAMCVGC [G17Y], the protein stability index falls from 2.75 to 2.58.

First: HYPFLGAMGDHSKKKPITAMCVGC [G17I]
Second: HYPFLGAMGDHSKKKPTTAMCVGC [G17T]
The protein stability index of the first is lower: 1.98 for the first, 2.8 for the second.

Going from HYPFLGAMGDHSKKKPNTAMCVGC [G17N] to HYPFLGAMGDHSKKKPVTAMCVGC [G17V], the protein stability index falls from 3.01 to 2.26.

Compared with HYPFLGAMGDHSKKKPQTAMCVGC [G17Q], HYPFLGAMGDHSKKKPATAMCVGC [G17A] is lower in protein stability index: 3.46 for the first, 2.86 for the second.

Going from HYPFLGAMGDHSKKKPHTAMCVGC [G17H] to HYPFLGAMGDHSKKKPFTAMCVGC [G17F], the protein stability index falls from 3.18 to 2.46.

Going from HYPFLGAMGDHSKKKPLTAMCVGC [G17L] to HYPFLGAMGDHSKKKPGTAMCVKC [G23K], the protein stability index rises from 2.1 to 3.18.

Compared with HYPFLGAMGDHSKKKPGTAMCVQC [G23Q], HYPFLGAMGDHSKKKPGTAMCVVC [G23V] is lower in protein stability index: 2.57 for the first, 2.28 for the second.

Compared with HYPFLGAMGDHSKKKPGTAMCVTC [G23T], HYPFLGAMGDHSKKKPGTAMCVIC [G23I] is lower in protein stability index: 2.96 for the first, 2.16 for the second.

First: HYPFLGAMGDHSKKKPGTAMCVEC [G23E]
Second: HYPFLGAMGDHSKKKPGTAMCVNC [G23N]
The protein stability index of the first is higher: 3.25 for the first, 2.72 for the second.

Compared with HYPFLGAMGDHSKKKPGTAMCVMC [G23M], HYPFLGAMGDHSKKKPGTAMCVAC [G23A] is higher in protein stability index: 1.58 for the first, 2.42 for the second.

Going from HYPFLGAMGDHSKKKPGTAMCVHC [G23H] to HYPFLGAMGDHSKKKPGTAMCVWC [G23W], the protein stability index falls from 2.52 to 1.85.

Going from HYPFLGAMGDHSKKKPGTAMCVLC [G23L] to HYPFLGAMGDHSKKKPGTAMCVDC [G23D], the protein stability index rises from 1.8 to 3.32.

First: HYPFLGAMGDHSKKKPGTAMCVPC [G23P]
Second: HYPFLGAMGDHSKKKPGTAMCVSC [G23S]
The protein stability index of the first is higher: 3.31 for the first, 2.76 for the second.

Compared with HYPFLGAMGDHSKKKPGTAMCVYC [G23Y], HYPFLGAMGDHSKKKPGTAMCVFC [G23F] is higher in protein stability index: 1.69 for the first, 2.44 for the second.

First: HYPFLGAMGDHSKKKPGTAMCVCC [G23C]
Second: HYPFLGAMGDHSKKKPGTAMCVRC [G23R]
The protein stability index of the first is higher: 3.18 for the first, 2.43 for the second.

Compared with HYPFLGAMGDHSKKKPGTAMCVGR [C24R], HYPFLGAMGDHSKKKPGTAMCVGD [C24D] is higher in protein stability index: 3.52 for the first, 4.13 for the second.

Compared with HYPFLGAMGDHSKKKPGTAMCVGI [C24I], HYPFLGAMGDHSKKKPGTAMCVGS [C24S] is higher in protein stability index: 2.8 for the first, 3.46 for the second.

Compared with HYPFLGAMGDHSKKKPGTAMCVGP [C24P], HYPFLGAMGDHSKKKPGTAMCVGK [C24K] is higher in protein stability index: 3.82 for the first, 4.12 for the second.

Compared with HYPFLGAMGDHSKKKPGTAMCVGT [C24T], HYPFLGAMGDHSKKKPGTAMCVGN [C24N] is higher in protein stability index: 2.83 for the first, 3.64 for the second.

Going from HYPFLGAMGDHSKKKPGTAMCVGY [C24Y] to HYPFLGAMGDHSKKKPGTAMCVGG [C24G], the protein stability index rises from 2.75 to 3.17.

Going from HYPFLGAMGDHSKKKPGTAMCVGF [C24F] to HYPFLGAMGDHSKKKPGTAMCVGQ [C24Q], the protein stability index rises from 2.23 to 4.02.

First: HYPFLGAMGDHSKKKPGTAMCVGH [C24H]
Second: HYPFLGAMGDHSKKKPGTAMCVGL [C24L]
The protein stability index of the first is higher: 3.42 for the first, 2.48 for the second.

First: HYPFLGAMGDHSKKKPGTAMCVGW [C24W]
Second: HYPFLGAMGDHSKKKPGTAMCVGV [C24V]
The protein stability index of the first is lower: 1.68 for the first, 3.24 for the second.

Going from HYPFLGAMGDHSKKKPGTAMCVGM [C24M] to HYPFLGAMGDHSKKKPGTAMCVGA [C24A], the protein stability index rises from 2.52 to 3.09.
